What was measured:
soluble CAR D1 domain = soluble CAR D1 domain (chicken); experiment: SPR
soluble CAR D12 = soluble CAR D12 (chicken); experiment: SPR

B1: CELO fiber1 knob (domain or fragment)
chain: GSSTPEVATYHCGDNLLESYDIFASLPNTNAAKVAAYCRLAAAGGVVSGTIQVTSYAGRWPKVGNSVTDGIKFAIVVSPPMDKDPRSNLSQWLGATVFPAGATTALFSPNPYGSLNTITTLPSIASDWYVPESNLVTYTKIHFKPTGSQQLQLASGELVVAAAKSPVQTTKYELIYLGFTLKQNSSGTNFFDPNASSDLSFLTPPIPFTYLGYYQ
Soluble CAR D1 domain
  Kd: 420 nM
Soluble CAR D12
  Kd: 115 nM

From article PMC10875832 (2024)
